Data as given in the supplement of paper PMC9170038.

Tested on: MS2 coat protein
Assay: apparent KD of MS2 coat protein; designed switch direction (-1 OFF switch, 1 ON switch): -1; higher = weaker reporter binding
Outline: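 Designed RNA switches were transcribed on Illumina chips by stalled E. coli RNA polymerase and titrated with SNAP-549-labelled MS2 coat protein from 0.7 or 1.5 nM, doubling to 3 µM. Step length ran from 0.8–1.5 h at the lowest concentration to 10–20 min at the highest. The apparent KD is the median over clusters for each design, from curve-fitted normalised cluster fluorescence.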

[1] = Eterna round: R95, input ligand: FMN 200 uM
[2] = Eterna round: R95, input ligand: microRNA oligo, concentration not stated
[3] = Eterna round: R95, input ligand: none
[4] = input ligand: microRNA oligo, concentration not stated

Row | Sequence | apparent KD of MS2 coat protein (input ligand: FMN 200 uM) | apparent KD of MS2 coat protein (input ligand: none) | apparent KD of MS2 coat protein [1] | apparent KD of MS2 coat protein [2] | apparent KD of MS2 coat protein [3] | apparent KD of MS2 coat protein [4]
1 | GCCCUCACAGUGAGGAUAUCUGAGCAUCCCGCUAAGGAGAAGGCACAUGAGGAUCACCCAUGUAAUUGGUUUAA [BmEX4 A.22] (Eterna round: R97, puzzle: Brourd's mod of Exclusion 4) | 124 nM | 39.8 nM |  |  |  | 
2 | CAUUACUGCAGGCUUUGGGACAUGAGGAUCACCCAUGUUCGUCUUAUUGAUCUAGGUACGCUGACGUACCUAGAUCU [JL-sv1-2.26 Brourd mod] (puzzle: Sensor v3, turn-off variant 1) |  |  | 17.6 nM | 20.8 nM | 15.1 nM | 
3 | CAUACGGCAGGAUAUGCGUGGCCAUCUUAGCUCUACCUAAGACAUGAGGAUCACCCAUGUAGAAGGGUUACAUA [Eternabot (Original) Solution 41] (Eterna round: R97, puzzle: Exclusion 2) | 20.5 nM | 19.8 nM |  |  |  | 
4 | AGGUGCUUCUGGAGACAUGAGGAUCACCCAUGUCGAGUCAGCGAGGAUAUCGGUAAGACAUGUGAUGAGAAGGCGCAGACCGAU [Ex NG3 #52] (Eterna round: R96, puzzle: Exclusion NG 3) | 48.6 nM | 30.8 nM |  |  |  | 22.6 nM
5 | CAGUCAGCGCAGGAUAUCUGCUCGGUGACAGACGGAGAAGGGUGCACAUGAGGAUCACCCAUGUGAAUCUCUAA [Eternabot (Original) Solution 3] (Eterna round: R97, puzzle: Exclusion 6) | 21.4 nM | 28.5 nM |  |  |  | 
6 | UUGAUAUGAGGAUAUUGCUAAGUCGACAUGAGGAUCACCCAUGUGAAGGAAUGUUUAUUGCAAGAAGGCGUCGCGG [Eternabot (L1) Solution 10] (Eterna round: R97, puzzle: Exclusion 5) | 49.5 nM | 60.5 nM |  |  |  | 
7 | CUUUUGUGAGGAUAUUAGUAGUAAAUAAAUUAAAUUACUACUGAGAAGGCACAUGAGGAUCACCCAUGUUCCUC [salish99_ex4_r3_057] (puzzle: Exclusion 4) |  |  |  | 32 nM |  | 
8 | AUCGUGCAGCUUUGCUGUACGAGUACAUGAGGAUCACCCAUGUAGGAUAUGGUACGCUUUGCGUGCUAGAAGGAUAUGCGAUUU [EX ENG3 1.47] (Eterna round: R96, puzzle: Exclusion NG 3) | 31.4 nM | 34.6 nM |  |  |  | 23.9 nM
9 | UAGUGAGCGUGAGGAAUAUACAUGAGGAUCACCCAUGUUUGCUAAUAUAUUGCUCGUCUUAUAACAACAAUUAACUG [Mod-hoo-honey#abc] (Eterna round: R97, puzzle: Sensor, turn-off variant 1) | 27.5 nM | 20.9 nM |  |  |  | 
10 | GAAAUACAUGAGGAUCACCCAUGUAAGGAUAUGCUAGCGGUCGGCUGACUGACUGCUAGCAGAAGGUACAUGAU [Mat - Mod of JL D81] (puzzle: Exclusion 1) |  |  |  | 67.5 nM |  | 
11 | AAAACACAUGAGGAUCACCCAUGUGAGGAUAUGUUAGUUUCGGCGAAAGCCGAAAUUAACAGAAGGCACAGAAA [JR_Exclusion1_Sub023] (puzzle: Exclusion 1) |  |  | 44.7 nM | 39.4 nM | 40.1 nM | 
12 | AGUGUGUGGCAGGAUAUGCGAUUUAUAGGUGAAGCAGAAGGGUCUACAUGAGGAUCACCCAUGUGUGCGGUUGA [Ex6 #21] (Eterna round: R97, puzzle: Exclusion 6) | 318 nM | 160 nM |  |  |  | 
13 | AAAAGGUGAGGAUAUUCAAGGAAAGACAUGAGGAUCACCCAUGUAAGAAAGGAAAAGGGAGGAGAAGGUGUGAAAA [salish99_ex5_r4_136] (Eterna round: R97, puzzle: Exclusion 5) | 62.1 nM | 60.2 nM |  |  |  | 
14 | AAUUAGCAAGCGAGAUCUCACAUGAGGAUCACCCAUGUGCUCGUCUUAUAAGGUACUGUGACGAUAGUCACGGUACC [Mat - Sensor, turn-off var - Eli Mod - D39] (Eterna round: R97, puzzle: Sensor, turn-off variant 1) | 13.2 nM | 14.8 nM |  |  |  | 
15 | AGGUGUAGAGGAUAUUUAUACUCCCACAUGAGGAUCACCCAUGUCCUGGUCACCAAGGACGGAGAAGGCUACACCA [Omei Ex5 D23] (Eterna round: R97, puzzle: Exclusion 5) | 48.5 nM | 41.8 nM |  |  |  | 
16 | UUGAUGUGAGGAUAUAUAUGGUGGUUUUUUUAUUUUUUAUUACUUGAGGAUCACCCAAGUAGAAGGCGCUACGU [JR_Ex2_Sub069] (Eterna round: R97, puzzle: Exclusion 2) | 29.4 nM | 39.3 nM |  |  |  | 
17 | CCUCGUGCACGAGGAUAUUGGAAAGGAAGUGUACGAGAAGGCGUGCCGAGGGAACAUGAGGAUCACCCAUGUGGCCUCAUCACA [PowerStrip EXNG 1.13] (Eterna round: R96, puzzle: Exclusion NG 1) | 120 nM | 152 nM |  |  |  | 97.5 nM
18 | UUGGCAGGUUUUUUGCUCGACAUGAGGAUCACCCAUGUUGCGUGGGUUGUGUGUGUGCGGUGUAUAUAUAUGGUCCU [-24.8, -48.1 kcal, A 14%] (Eterna round: R97, puzzle: Sensor, turn-off variant 1) | 480 nM | 644 nM |  |  |  | 
19 | AAAUGACAUGAGGAUCACCCAUGUGGCCCUUAGACUCAUAUCGAGGAUAUCCAGGGCCGGGCCGUGGAGAAGGCGAAUUAAAAU [Edatriusti] (Eterna round: R96, puzzle: Exclusion NG 3) | 32.1 nM | 40.6 nM |  |  |  | 26.1 nM
20 | AAACGGCAGGGAGGAUAUGCUUGCCUGGGUCGUCUUCAAACAUGAGGAUCACCCAUGUAGUCGACGCAGAAGGCCCUCAAAGCC [JL ViennaUCT Ontiis mod 4] (Eterna round: R96, puzzle: Exclusion NG 2) | 42.9 nM | 16.7 nM |  |  |  | 8.85 nM
21 | UGUUGUUGAUAGGAUAUACUUGUAGGAGUAGGAGUAGAAGGAUCUACAUGAGGAUCACCCAUGUAGGAGUGAGA [JR_E6_Sub003] (puzzle: Exclusion 6) |  |  | 18.2 nM | 16.6 nM | 15.7 nM | 
22 | AGUAACUAUCACGAAAGUGAUAGUUACAAAAGCAGUGAAACAUGAGGAUCACCCAUGUCCUCAUUUGCUCGUCUUAU [Sensor 3 - 24] (puzzle: Sensor v3, turn-off variant 2) |  |  | 53.4 nM | 576 nM | 66.5 nM | 
23 | CAGUACUGAGGAUAUACAUGAGGAUCACCCAUGUGCUCUAGCUAGGAUACUAGCAUUAGUAGAAGGCAGUACUG [Fiskers Ex 3 828 mod 8] (Eterna round: R96, puzzle: Exclusion 3) | 132 nM | 19.7 nM |  |  |  | 14.4 nM
24 | AAAAAGGCAGGAUAUGCAUACACACAAAAAAAAAAACUGGGACAUGAGGAUCACCCAUGUAGAAGGGCCAAAAA [Dora Explored 8 - Jieux - Exclusion 2] (Eterna round: R96, puzzle: Exclusion 2) | 60.1 nM | 54.1 nM |  |  |  | 53.7 nM
